± gives the standard deviation of the averaged measurements.
Assay: total protein half-life in vivo (active degradation + dilution); higher = more stable protein
[1] = E. coli NCM3722 delta-clpP delta-lon delta-hslV, growth: N-lim chemostat, doubling time 6 h
[2] = E. coli NCM3722 delta-clpP, growth: N-lim chemostat, doubling time 6 h
[3] = E. coli NCM3722 delta-hslV, growth: N-lim chemostat, doubling time 6 h
[4] = E. coli NCM3722 delta-lon, growth: N-lim chemostat, doubling time 6 h
[5] = E. coli NCM3722 delta-smpB, growth: N-lim chemostat, doubling time 6 h
[6] = wild type E. coli NCM3722, growth: C-lim chemostat, doubling time 3 h
[7] = wild type E. coli NCM3722, growth: C-lim chemostat, doubling time 6 h
[8] = wild type E. coli NCM3722, growth: C-lim chemostat, doubling time 12 h
[9] = wild type E. coli NCM3722, growth: N-lim chemostat, doubling time 6 h
[10] = wild type E. coli NCM3722, growth: N-lim chemostat, doubling time 12 h
[11] = wild type E. coli NCM3722, growth: P-lim chemostat, doubling time 6 h
[12] = wild type E. coli NCM3722, growth: P-lim chemostat, doubling time 12 h

| Substance | total protein half-life in vivo [1] [h] | total protein half-life in vivo [2] [h] | total protein half-life in vivo [3] [h] | total protein half-life in vivo [4] [h] | total protein half-life in vivo [5] [h] | total protein half-life in vivo [6] [h] | total protein half-life in vivo [7] [h] | total protein half-life in vivo [8] [h] | total protein half-life in vivo [9] [h] | total protein half-life in vivo [10] [h] | total protein half-life in vivo [11] [h] | total protein half-life in vivo [12] [h] |
| --- | --- | --- | --- | --- | --- | --- | --- | --- | --- | --- | --- | --- |
| MKKRIPTLLATMIATALYSQQGLAADLASQCMLGVPSYDRPLVQGDTNDLPVTINADHAKGDYPDDAVFTGSVDIMQGNSRLQADEVQLHQKEAPGQPEPVRTVDALGNVHYDDNQVILKGPKGWANLNTKDTNVWEGDYQMVGRQGRGKADLMKQRGENRYTILDNGSFTSCLPGSDTWSVVGSEIIHDREEQVAEIWNARFKVGPVPIFYSPYLQLPVGDKRRSGFLIPNAKYTTTNYFEFYLPYYWNIAPNMDATITPHYMHRRGNIMWENEFRYLSQAGAGLMELDYLPSDKVYEDEHPNDDSSRRWLFYWNHSGVMDQVWRFNVDYTKVSDPSYFNDFDNKYGSSTDGYATQKFSVGYAVQNFNATVSTKQFQVFSEQNTSSYSAEPQLDVNYYQNDVGPFDTRIYGQAVHFVNTRDDMPEATRVHLEPTINLPLSNNWGSINTEAKLLATHYQQTNLDWYNSRNTTKLDESVNRVMPQFKVDGKMVFERDMEMLAPGYTQTLEPRAQYLYVPYRDQSDIYNYDSSLLQSDYSGLFRDRTYGGLDRIASANQVTTGVTSRIYDDAAVERFNISVGQIYYFTESRTGDDNITWENDDKTGSLVWAGDTYWRISERWGLRGGIQYDTRLDNVATSNSSIEYRRDEDRLVQLNYRYASPEYIQATLPKYYSTAEQYKNGISQVGAVASWPIADRWSIVGAYYYDTNANKQADSMLGVQYSSCCYAIRVGYERKLNGWDNDKQHAVYDNAIGFNIELRGLSSNYGLGTQEMLRSNILPYQNTL | 6.76 ± 0.85 | 6.59 ± 0.56 | 6.39 ± 0.33 | 6.28 ± 0.42 | 6 ± 0.24 | 3.25 ± 0.27 | 6.269 ± 0.016 | 13.3 ± 0.19 | 6.7 ± 0.21 | 13 ± 0.44 | 6.34 ± 0.59 | 13.5 ± 0.86 |
| P30015 | 6.18 ± 0.094 | 5.87 ± 0.33 | 5.75 ± 0.43 | 5.14 ± 0.24 | 4.71 ± 0.31 | 2.92 | 6.31 ± 0.44 | 11.4 ± 3.1 | 5.5 ± 0.47 | 9.93 ± 0.82 | 5.97 ± 0.43 | 11.8 ± 0.42 |
| MQDSILTTVVKDIDGEVTTLEKFAGNVLLIVNVASKCGLTPQYEQLENIQKAWVDRGFMVLGFPCNQFLEQEPGSDEEIKTYCTTTWGVTFPMFSKIEVNGEGRHPLYQKLIAAAPTAVAPEESGFYARMVSKGRAPLYPDDILWNFEKFLVGRDGKVIQRFSPDMTPEDPIVMESIKLALAK | 5.18 ± 1.1 | 4.68 ± 0.55 | 4.23 ± 0.055 | 4.73 ± 0.43 | 4.24 ± 0.047 | 2.82 ± 0.28 | 4.93 ± 0.1 | 7.87 ± 4.7 | 3.99 ± 0.07 | 6.05 ± 0.29 | 4.87 ± 0.1 | 11.1 ± 0.68 |
| MLEDLRANSWSLRPCCMVLAYRVAHFCSVWRKKNVLNNLWAAPLLVLYRIITECFFGYEIQAAATIGRRFTIHHGYAVVINKNVVAGDDFTIRHGVTIGNRGADNMACPHIGNGVELGANVIILGDITLGNNVTVGAGSVVLDSVPDNALVVGEKARVKVIK [P0ACC9] |  |  |  | 7.07 ± 0.2 |  |  |  |  |  |  |  |  |
| MNYSLKQLKVFVTVAQEKSFSRAGERIGLSQSAVSHSVKELENHTGVRLLDRTTREVVLTDAGQQLALRLERLLDELNSTLRDTGRMGQQLSGKVRVAASQTISAHLIPQCIAESHRRYPDIQFVLHDRPQQWVMESIRQGDVDFGIVIDPGPVGDLQCEAILSEPFFLLCHRDSALAVEDYVPWQALQGAKLVLQDYASGSRPLIDAALARNGIQANIVQEIGHPATLFPMVAAGIGISILPALALPLPEGSPLVVKRITPVVERQLMLVRRKNRSLSTAAEALWDVVRDQGNALMAGREGDPLYQI [P0ACR7] | 6.06 ± 0.61 | 4.84 ± 0.076 | 5.19 ± 0.28 |  |  | 2.84 |  | 12.5 ± 1.6 | 4.85 ± 0.15 | 9.2 ± 0.89 | 3.88 | 6.14 ± 1.9 |
| MTKLKLLALGVLIATSAGVAHAEGKFSLGAGVGVVEHPYKDYDTDVYPVPVINYEGDNFWFRGLGGGYYLWNDATDKLSITAYWSPLYFKAKDSGDHQMRHLDDRKSTMMAGLSYAHFTQYGYLRTTLAGDTLDNSNGIVWDMAWLYRYTNGGLTVTPGIGVQWNSENQNEYYYGVSRKESARSGLRGYNPNDSWSPYLELSASYNFLGDWSVYGTARYTRLSDEVTDSPMVDKSWTGLISTGITYKF [P0A908] | 6.14 ± 1.1 | 7.17 ± 0.13 | 6.01 ± 1.1 | 6.05 ± 1 | 5.96 ± 0.079 | 2.55 ± 0.14 | 5.81 ± 0.46 | 13.6 ± 2.3 | 6.35 ± 0.63 | 14 ± 1.4 | 5.7 ± 0.23 |  |
| MPIRVPDELPAVNFLREENVFVMTTSRASGQEIRPLKVLILNLMPKKIETENQFLRLLSNSPLQVDIQLLRIDSRESRNTPAEHLNNFYCNFEDIQDQNFDGLIVTGAPLGLVEFNDVAYWPQIKQVLEWSKDHVTSTLFVCWAVQAALNILYGIPKQTRTEKLSGVYEHHILHPHALLTRGFDDSFLAPHSRYADFPAALIRDYTDLEILAETEEGDAYLFASKDKRIAFVTGHPEYDAQTLAQEFFRDVEAGLDPDVPYNYFPHNDPQNTPRASWRSHGNLLFTNWLNYYVYQITPYDLRHMNPTLD | 3.26 ± 0.67 | 1.85 ± 0.45 | 1.61 ± 0.2 | 1.87 ± 0.033 | 1.52 ± 0.29 | 2.61 ± 0.097 | 3.27 ± 0.32 | 4.92 ± 0.52 | 1.58 ± 0.093 | 2.14 ± 0.23 | 3.94 ± 0.39 | 6.4 ± 0.19 |
| MTTYDRNRNAITTGSRVMVSGTGHTGKILSIDTEGLTAEQIRRGKTVVVEGCEEKLAPLDLIRLGMN | 4.22 ± 0.059 |  | 4.25 ± 0.64 | 4.53 ± 0.13 | 4.42 ± 0.76 | 2.88 ± 0.38 | 4.16 ± 0.068 | 5.42 ± 0.38 | 4.075 ± 0.023 | 6.36 ± 0.21 | 4.52 ± 0.25 | 9.35 ± 0.55 |
| MEFSFSPKRLVVAVAAALPLMASAADTPSTATARKGFAGYDHPNQYLVKPATTIADNMMPVMQHPAQDKETQQKLAELEKKTGKKPNVVVFLLDDVGWMDVGFNGGGVAVGNPTPDIDAVASQGLILTSAYSQPSSSPTRATILTGQYSIHHGILMPPMYGQPGGLQGLTTLPQLLHDQGYVTQAIGKWHMGENKESQPQNVGFDDFRGFNSVSDMYTEWRDVHVNPEVALSPDRSEYIKQLPFSKDDVHAVRGGEQQAIADITPKYMEDLDQRWMDYGVKFLDKMAKSDKPFFLYYGTRGCHFDNYPNAKYAGSSPARTSYGDCMVEMNDVFANLYKTLEKNGQLDNTLIVFTSDNGPEAEVPPHGRTPFRGAKGSTWEGGVRVPTFVYWKGMIQPRKSDGIVDLADLFPTALDLAGHPGAKVANLVPKTTFIDGVDQTSFFLGTNGQSNRKAEHYFLNGKLAAVRMDEFKYHVLIQQPYAYTQSGYQGGFTGTVMQTAGSSVFNLYTDPQESDSIGVRHIPMGVPLQTEMHAYMEILKKYPPRAQIKSD |  |  |  |  |  |  |  |  | 3.56 |  |  |  |
| MIGRISRFMTRFVSRWLPDPLIFAMLLTLLTFVIALWLTPQTPISMVKMWGDGFWNLLAFGMQMALIIVTGHALASSAPVKSLLRTAASAAKTPVQGVMLVTFFGSVACVINWGFGLVVGAMFAREVARRVPGSDYPLLIACAYIGFLTWGGGFSGSMPLLAATPGNPVEHIAGLIPVGDTLFSGFNIFITVALIVVMPFITRMMMPKPSDVVSIDPKLLMEEADFQKQLPKDAPPSERLEESRILTLIIGALGIAYLAMYFSEHGFNITINTVNLMFMIAGLLLHKTPMAYMRAISAAARSTAGILVQFPFYAGIQLMMEHSGLGGLITEFFINVANKDTFPVMTFFSSALINFAVPSGGGHWVIQGPFVIPAAQALGADLGKSVMAIAYGEQWMNMAQPFWALPALAIAGLGVRDIMGYCITALLFSGVIFVIGLTLF |  | 5.89 |  | 5.21 | 5.88 |  |  |  | 5.5 | 15.3 |  |  |
| MNRRRKLLIPLLFCGAMLTACDDKSAENAAAMTPEVGVVTLSPGSVNVLSELPGRTVPYEVAEIRPQVGGIIIKRNFIEGDKVNQGDSLYQIDPAPLQAELNSAKGSLAKALSTASNARITFNRQASLLKTNYVSRQDYDTARTQLNEAEANVTVAKAAVEQATINLQYANVTSPITGVSGKSSVTVGALVTANQADSLVTVQRLDPIYVDLTQSVQDFLRMKEEVASGQIKQVQGSTPVQLNLENGKRYSQTGTLKFSDPTVDETTGSVTLRAIFPNPNGDLLPGMYVTALVDEGSRQNVLLVPQEGVTHNAQGKATALILDKDDVVQLREIEASKAIGDQWVVTSGLQAGDRVIVSGLQRIRPGIKARAISSSQENASTESKQ | 5.76 ± 0.3 | 6.22 ± 0.68 | 6.15 ± 0.1 | 6.24 ± 0.35 | 5.05 ± 0.34 | 2.98 | 6.09 | > 16 | 5.92 ± 0.32 | 10.6 ± 0.88 | 3.99 ± 0.38 | 8.12 ± 0.25 |
| MIFLMTKDSFLLQGFWQLKDNHEMIKINSLSEIKKVGNKPFKVIIDTYHNHILDEEAIKFLEKLDAERIIVLAPYHISKLKAKAPIYFVSRKESIKNLLEITYGKHLPHKNSQLCFSHNQFKIMQLILKNKNESNITSTLNISQQTLKIQKFNIMYKLKLRRMSDIVTLGITSYF | 4.62 ± 0.1 | 3.05 ± 0.11 | 1.91 ± 0.33 | 1.03 ± 0.022 | 3.52 ± 0.093 |  |  |  | 2.29 ± 0.07 | 3.82 ± 0.15 | 2.34 ± 0.054 | 6.16 ± 0.74 |
| MKNKADNKKRNFLTHSEIESLLKAANTGPHAARNYCLTLLCFIHGFRASEICRLRISDIDLKAKCIYIHRLKKGFSTTHPLLNKEVQALKNWLSIRTSYPHAESEWVFLSRKGNPLSRQQFYHIISTSGGNAGLSLEIHPHMLRHSCGFALANMGIDTRLIQDYLGHRNIRHTVWYTASNAGRFYGIWDRARGRQRHAVL [P0ADH5] | 5.33 ± 0.87 |  |  | 1.9 | 0.718 ± 0.15 |  |  |  |  | 0.988 |  |  |

Reference: the supplement of paper PMC11246515
